Test: yeast display, Sf9 membrane polyspecificity reagent, FACS + sequencing; frameworks hold sequencing errors
Outline: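 Genes from sorted yeast were amplified by colony PCR, read by MiSeq 2 × 250 sequencing and filtered on CDR length. These cells carried a synthetic nanobody library in Saccharomyces cerevisiae BJ5465 and were sorted by FACS into low and high (top ~1%) gates on anti-HA and streptavidin fluorescence. Polyreactivity is labelled according to the gate of origin.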

| Sequence | polyreactivity (PSR sort gate) |
| --- | --- |
| QVQLVESGGGLVQAGGSLRLSCAASGRTFNTYTMGWYRQAPGKERELVAAITGTGGSTFYADSVKGRFTISRDNAKNTVYLQMNSLKPEDTAVYYCNADLEGTIGVYTDGFDSDYWGQGTQVTVSS | low polyreactivity |
| QVQLVESGGGLVQAGGSLRLSCAASGRTFNVNVMGWSRQAPGKERELVAAIRYTGGSTYADSVKGRFTISRDNAKNTVYLQMNSLKPEDTAVYYCNADTFFPFDHGMDYWGQGTQVTVSS | low polyreactivity |
| QVQLVESGGGLVQAGGSLRLSCAASGRTFNVNVMGWYRQAPGKERELVAAIRYTGGSTYADSVKGRFTISRDNAKNTVYLQMNSLKPEDTAVYYCNADTFFPFDHGMDYWGQGTQVTVSS | low polyreactivity |
| QVQLVESGGGLVQAGGSLRLSCAASGRTFNVYAMGWYRQAPGKERELVAGISSSGGSTYYADSVKGRFTISRDNAKNTVYLQMNSLKPEDTAVYYCNTVYKYHGVRPYGYWGQGTQVTVSS | high polyreactivity |
| QVQLVESGGGLVQAGGSLRLSCAASGRTFNWNAMGWYRQAPGKERELVAAITSGGSTYNADSVKGLFTISRDNAKNTVYLQMNSLKPEDTAVYYCAGRINFYRSKYYYWGQGTQVTVSS | high polyreactivity |
| QVQLVESGGGLVQAGGSLRLSCAASGRTFNWYAMGWYRQAPGKERELVAAITQSGGITSYADSVKGRFTISRDNAKNTVYLQMNSLKPEDTAVYYCATTSRYSRSHYDWYDYWGQGTQVTVSS | low polyreactivity |
| QVQLVESGGGLVQAGGSLRLSCAASGRTFNYYAMGWYRQAPGKERELVAAISSRGGTYYADSVKGRFTISRDNAKNTVYLQMNSLKPEDTAVYYCNAVHYDTISDYWGQGTQVTVSS | high polyreactivity |
| QVQLVESGGGLVQAGGSLRLSCAASGRTFNYYVMGWYRRAPGKERELVAAITWRGGRTYADSVKGRFTISRDNAKNTVYLQMNSLKPEDTAVYYCAAYTTKGYGYWGQGTQVTVSS | high polyreactivity |
| QVQLVESGGGLVQAGGSLRLSCAASGRTFPAYAMGWYRQAPGKERELVAAISSSGSRTYYADSVKGRFTISRDNAKNTVYLQMNSLKPEDTAVYYCAARGGRRQKVNRDDYWGQGTQVTVSS | high polyreactivity |
| QVQLVESGGGLVQAGGSLRLSCAASGRTFPFYAMGWYRQAPGKERELVAAINSGGITNYADSVKGRFTISRDNAKNTVYLQMNSLKPEDTAVYYCAAKTAFYRERGYWGQGTQVTVSS | low polyreactivity |
| QVQLVESGGGLVQAGGSLRLSCAASGRTFPGNAMGWSRQAPGKERELVATITWSSGRTHYADSVKGRFTISRDNAKNTVYLQMNSLKPEDTAVYYCAAKWIVAVGGFYYWGQGTQVTVSS | low polyreactivity |
| QVQLVESGGGLVQAGGSLRLSCAASGRTFPGTAMGWYRQAPGKVRELVAAISSSGGSTHYADSVKGRFTISRDTAKNTVYYQMNSLKPEDTAVYYCNTVYAVWYKLDYWGQGTQVTVSS | high polyreactivity |
| QVQLVESGGGLVQAGGSLRLSCAASGRTFPGYAMGCYRQAPGKERELVATITFSDGSTYYADSVKGRFTISRDNAKITVYLQMNSLKPEDTAVYYCNARRSYFLRYGVNYWGQGTQVTVST | low polyreactivity |
| QVQLVESGGGLVQAGGSLRLSCAASGRTFPGYAMGWYRQAPGKERELVAAITSSGDDTYYADSVKGRFTISRDNAKNTVYLQMYSLKPEDTAVYYCRLFRRSADSSFDYEYWGQGTQVTVSS | low polyreactivity |
| QVQLVESGGGLVQAGGSLRLSCAASGRTFPGYAMGWYRQAPGKERELVATITGNGGSTYYADSVKGRFTISRDNAKNTVYLQMNSLKPEDTAVYYCAAGRRRPYVRAYRGTDYWGQGTQVTVSS | low polyreactivity |
| QVQLVESGGGLVQAGGSLRLSCAASGRTFPGYTMGWSRQAPGKERELVAAISYSGGSTYYADSVKGRFTISRDNAKNTVYLQMYSLKPEDTAVYYCAAAYDRQRRYSWVGERYYWGQGTQVTVSS | high polyreactivity |
| QVQLVESGGGLVQAGGSLRLSCAASGRTFPLNAMGWFRQAPGKERELVAAITWSGGRTYYADSVKGRFTISRDNAKNTVYLQMNSLKPEDTAVYYCAAKRTTWKIQSGYDYWGQGTQVTVSS | low polyreactivity |
| QVQLVESGGGLVQAGGSLRLSCAASGRTFPLYAMGWYRQAPGKERELVAAISWSGGSTYYADSVKGRFTISRDHAKNTVYLQMNSLKPEDTAVYYCNTLGRLTGRYGWSSKYYYWGQGTQVTVSS | high polyreactivity |
| QVQLVESGGGLVQAGGSLRLSCAASGRTFPPYAMGWYRQAPGKERELVAAIRWSGGDTYYADSVKGRFTISRDNAKNTVYLQMNSLKPEDTAVYYCNAVYYSYSYGYNYWGQGTQVTVSS | high polyreactivity |
| QVQLVESGGGLVQAGGSLRLSCAASGRTFPQYAMGWYRQAPGKERELVASITSRSGRTYYADSVKGRFTISRDNAKNTVYLQMNSLKPEDTAVYYCNAVSSWWYMNYWGQGTQVTVSS | high polyreactivity |
| QVQLVESGGGLVQAGGSLRLSCAASGRTFPRNAMGWYRQAPGKERELVAAISYGGGRTYYADSVKGRFTISRDNAKNTVYLQMNSLKPEDTAVYYCATVRRTDYPLGMDYWGQGTQVTVSS | high polyreactivity |
| QVQLVESGGGLVQAGGSLRLSCAASGRTFPRNAMGWYRQAPGKERELVAAISYGGGRTYYADSVKGRFTISRDYAKNTVYLQMNSLKPEDTAVYYCATVRRTDYPLGMDYWGHGTQVTVSS | high polyreactivity |

| Sequence | polyreactivity (PSR sort gate) |
| --- | --- |
| QVQLVESGGGLVQAGGSLRLSCAASGRTFPRNGMGWYRPAPGQERELVAAIRYSGGSTYYADSVKGRFTISRDNAKNTVYLQMNSLKPEDTAVYYCAAEYRRALGVDYWGQGTQVTVSS | high polyreactivity |
| QVQLVESGGGLVQAGGSLRLSCAASGRTFPSYTMGWSRQAPGKERELVAAITWTGGSTYYADSVKGRFTISRDNAKNTVYLQMISLKPEDTAVYYCADYDYWGHGTQVTVSS | low polyreactivity |
| QVQLVESGGGLVQAGGSLRLSCAASGRTFPVNAMGGYRQAPGKERELVAVINWGGTSTYYADSVKGRFTISRDNAKNTVYLQMNSLKPEDTAVYYCAARARYPGVGYNYWGQGTQVTVSS | high polyreactivity |
| QVQLVESGGGLVQAGGSLRLSCAASGRTFPVYAMGWYRQAPGKERELVAAITRSDDSTYYADSVKGRFTISRDNAKNTVYLQMNSLKPEDTAVYYCARRSRESYEYDYWGQGTQVTVSS | low polyreactivity |
| QVQLVESGGGLVQAGGSLRLSCAASGRTFPVYDMGWYRQAPGKERELVAGITGSGGRTYYADSVKGRFTISRDNAKNTVYLQMNSLKPEDTAVYYCAADRNLYWDQHEYWGQGTQVTVSS | low polyreactivity |
| QVQLVESGGGLVQAGGSLRLSCAASGRTFPYNAMGWYRQAPGKERELVAAISWRGGSTYYADSVKGRFTISRDNAKNTVYLQMNSLKPEDTAVYYCNALYPVSYDHRGDYWGQGTQVTVSS | high polyreactivity |
| QVQLVESGGGLVQAGGSLRLSCAASGRTFPYNAMGWYRQAPGKERELVAAITSSGGSTYYADSVKGRFTISRDNAKNTVYLQMNSLKPEDTAVYYFAKGYYSPNYYYWGQGTQVTVSS | high polyreactivity |
| QVQLVESGGGLVQAGGSLRLSCAASGRTFPYNTMGWYRQAPGKERELVASISYRGGTYYADSVKGRFTISRDNAKNTVYLQMNSLKPEDTAVYYCNAVYYFSPSYRGYYWGQGTQVTVSS | high polyreactivity |
| QVQLVESGGGLVQAGGSLRLSCAASGRTFPYNVMGGYRQAPGKERELVASNDGSGGSTYYADSVKGRFTISRDNAKKTVYLQMNSLKPEDTAVYYCAAVYYQSGNYWYSYLGQSPYDYWGQGTQVTVSS | low polyreactivity |
| QVQLVESGGGLVQAGGSLRLSCAASGRTFPYYAMGWSRQAPGKERQLVAAISSSGGLTYYADSVKGRFTISRDNAKNTVYLQMNSLKPEDTAVYYFNVDAWYPYQGFLVGYYYWGQGTQVTVSS | low polyreactivity |
| QVQLVESGGGLVQAGGSLRLSCAASGRTFPYYAMGWYRQAPGKERELVAAISKRGGTTYYADSVKGRFTISRDNAKNTVYLQMNSLKPEDTAVYYCAKDSAYGWVAYDYWGQGTQVTVSS | high polyreactivity |
| QVQLVESGGGLVQAGGSLRLSCAASGRTFPYYAMGWYRQAPGKERELVAAISSSGGSTYYADSVKGRFTISRDNAKNTVYLQMNSLKPEDTEVYYCAAVYQFIKWGDRYEYWGQGTQVTVSS | high polyreactivity |
| QVQLVESGGGLVQAGGSLRLSCAASGRTFPYYAMGWYRQAPGKERELVAAITWSGGSTYYADSVKGRFTISRDNAKNTVYLQMNSLKPEDTAVYYCAKDYSRWGWNMGYWGQGTQVTVSS | high polyreactivity |
| QVQLVESGGGLVQAGGSLRLSCAASGRTFPYYVMGWYRQAPGKERELVATISSSGRTYYADSVKGRFTISRDNAKNTVYLQMNSLKPEDTAVYYCAARFRWNQNYHFYSWGQGTQVTVSS | high polyreactivity |
| QVQLVESGGGLVQAGGSLRLSCAASGRTFQDNVMGWYRQAPGKETELVAAINTSSGSTYYADSVKGRFTISRDNAKNTVYLQMNSLKPEDTAVYYCFSYDYDYWGQGTQVTVSS | low polyreactivity |
| QVQLVESGGGLVQAGGSLRLSCAASGRTFQGYAMGWYRQAPGKERDLVAAISTSGARTYYADSVKGRFTISRDNAKNTVYLQMNSLKPEDTAFYYCAAGGQGGDFGDDYWGQGTQVTVSS | high polyreactivity |
| QVQLVESGGGLVQAGGSLRLSCAASGRTFQGYSMGWYRQAPGKERELVAAISRSGGRTYYADSVKGRFTISRDNAKNTVYLQMNSLKPEDTAVYYCATDAFRDYGYWGQGTQVTVSS | high polyreactivity |
| QVQLVESGGGLVQAGGSLRLSCAASGRTFQRNAMGWYRQAPGKERELVAAITSGSRTNYADSVKGRFTISRDNAKNTVFLQMNSLKPEDTAVYYCAADYTWRNNYWGQGTQVTVSS | high polyreactivity |
| QVQLVESGGGLVQAGGSLRLSCAASGRTFQRNVMGWYRQAPGKERELVAAISSSGGGTYYADSVQGRFTISRANAKNTVYLQMNSLKPDDTAVYYCAARYRSYGGYGYYYWGLGTQVTVSS | high polyreactivity |
| QVQLVESGGGLVQAGGSLRLSCAASGRTFQRYTMGWYRPAPGKETELVAVITNGGTRTYYADYVKGRLTISRDYAKNTVYLQMNSLKPEYTAVYYCAARVRYTANYDYWGQGTQVTVSS | high polyreactivity |
| QVQLVESGGGLVQAGGSLRLSCAASGRTFQYNTMGWYRQAPGKERELVAAISRSGGTTYYADSVKGRFTISRDNAKNTVYLQMNSLKPEDTAVYYCAAANSYTFRYGSWGQGTEVTVSS | high polyreactivity |

Reference: the nanobody polyreactivity screen of Harvey et al. (2022)
